Consider 1 substance from article PMC5306358.

For this assay, the target named is tissue factor (TF), endogenous on human cells (human (endogenous in HMVEC, HUVEC, HAEC, MDA-MB-231)) (UniProt P13726).
Sequence of UniProt P13726 (P13726 33-295): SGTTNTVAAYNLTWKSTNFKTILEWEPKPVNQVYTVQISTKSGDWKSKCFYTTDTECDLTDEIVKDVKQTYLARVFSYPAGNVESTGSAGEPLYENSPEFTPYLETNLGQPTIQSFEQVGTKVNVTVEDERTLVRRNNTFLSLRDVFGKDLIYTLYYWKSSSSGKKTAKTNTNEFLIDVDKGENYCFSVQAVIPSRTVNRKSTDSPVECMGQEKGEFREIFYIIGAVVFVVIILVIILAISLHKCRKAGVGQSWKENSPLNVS

mfVII/NLS-SnCe6 conjugate (ligand) yielded a clonogenic assay of angiogenic HMVEC after fVII-tPDT with fVII/NLS-SnCe6 (0.0, 0.5, 1 and 2 μM SnCe6, 635 nm laser light at 36 J/cm^2); EC50 of SnCe6 for killing of 31 nM.
